Here are results for 4 molecules from US20230028880A1, “CD38-BINDING AGENTS AND USES THEREOF” (Biohaven Therapeutics Ltd., priority 2019, published 2023).

Several values for one entry are separate records, joined by “and”; a condition that tells them apart may be missing. Equal entries are not always repeated. Bridges are numbered along the chain shown (N, C = ends). Roman numbers before positions name the chains, in order. Where no end group is shown, it is not given here. [ ]: non-standard residue; d: D form. branched linker from compound 8 (carries γGlu-hexadecanedioic acid) = not defined here; Bip = N[C@@H](Cc1ccc(-c2ccccc2)cc1)C(=O)O; Ahp(2) = CCCCC[C@H](N)C(=O)O

The target of one assay is CD38 (human) (UniProt P28907). Briefly: ELISA; larger values represent binding. (In general: In an ELISA, binding on a coated surface is turned into a signal by an enzyme label.)
The target of assay [1] is CD38 on Daudi cells (ATCC CCL-213) (human) (UniProt P28907). Briefly: cell-based or functional assay.
The target in assay [2] is T1, CD38 (human, UniProt P28907 1-300). Briefly: cell-based or functional assay.
The target of assay [3] is CD38 on Daudi cells (human) (UniProt P28907). Briefly: ternary binding, flow cytometry: Daudi cells + PE human IgG1k. A general note: A flow cytometer gives signals particle by particle.
Assay [4] deals with T1, CD38. As to the kind of experiment: ternary binding, flow cytometry: PE-labelled human IgG1k recruited to Daudi cells. How it is done: Various technologies can be utilized to assess and/or characterize recruitment of antibodies to target cells, e.g., cancer cells. One such assay is a ternary binding assay. An exemplary protocol is described herein. Compounds were diluted in DMSO (MP 191418) to 1000× the starting concentration used in the assay into a 96 well polypropylene plate (Corning 3357). They were then serially diluted in ½ log increments to generate 8-12 concentrations in DMSO (assay dependent). These DMSO stocks were then step diluted 1/100 into PBS (VWR Cat. #20012043). Step diluted compound range was then added into the polypropylene assay plate 1/10 the volume of the assay volume. […] The cells were then added into the polypropylene plate with the step diluted compounds and incubated at 37° C. for 30 min. At the end of the incubation, the cells were centrifuged and washed 2× with How buffer containing 0.5% Tween 20 (BP337-500). Samples were analyzed on a BD FacsCelesta. Mean fluorescence was analyzed using Graphpad Prism and curves were fit using log(inhibitor) vs. response—Variable slope (four parameters).

Assay [5] has as its target T1, CD38. Briefly: cell-based or functional assay. This is another data set of the same source.

In turn, “Ala Arg Ahp Tyr His Asp Gly Val Leu Bph Ahp Asp Cys (SEQ ID NO.1) (peptide)” gave a Binding Assay (ELISA signal) with CD38 (human) of 1.97.
In the assay with CD38 (human), “Ala Leu His MePhe Val Leu Pro Bph Val Trp Val Cys (SEQ ID NO.2) (peptide)” yielded a Binding Assay (ELISA signal) of 1.69.

B1: I-40 (peptide)
peptide 1: Ac-AR[Ahp(2)]YHDGVL[Bip][Ahp(2)]DCG
peptide 2: GDCAWHLGELVWCT-NH2
modifications: disulfide II:3-II:13; also: C-terminal Gly of chain 1 amide-bonded to N-terminal Gly of chain 2 (one chain), thioether at chain A 13 to a chain's N-terminus
notes: The section is headed I-40, its product is called compound 523; also called compound 523
In general, IC50 refers to the concentration at which inhibition is half-maximal. A low value points to inhibition by little substance. Turning to B1, the EC50 (nM), killing of target cells in assay [1] came to 1.9 nM. Moreover, in the assay with CD38 [2], the “EC50 (nM), ADCC reporter cells” value stood at 50 nM. Besides, in assay [3], the MFI at 0.03 nM was 819 and 477; the MFI at 0.1 nM is 956 and 1170; the MFI at 0.3 nM was 1150 and 1290; the MFI at 1 nM is 1100 and 966. Also, in assay [3], the MFI at 3 nM was 900 and 1070; the MFI at 10 nM was 1950 and 1960; the MFI at 30 nM was 2160 and 2640; the MFI at 100 nM is 6090 and 6880. Further, in assay [3], the MFI at 300 nM is 7340 and 7420; the MFI at 1000 nM is 7290 and 7250; the MFI at 3000 nM is 7330 and 6680. In addition, the IC50 with CD38 [4] worked out at 50 nM.

B2: I-32 (peptide)
peptide 1: {‑C(O)CH2‑}-AR[Ahp(2)]YHDGVL[Bip][Ahp(2)]DC-{branched linker from compound 8 (carries γGlu-hexadecanedioic acid)}
peptide 2: DDCAWHLGELVWCT-NH2
modifications: disulfide II:3-II:13; not fully specified (N-terminus); reading uncertain; also: N-terminus of chain 2 amide-bonded to the branched linker (one conjugate), thioether at chain A 13 to a chain's N-terminus via -C(O)-CH2- (from 2-bromoacetic acid)
notes: One covalent conjugate
As for B2, in assay [1], the % dead cells at 1 nM is 14.4% and 13.5%; the % dead cells at 3 nM was 12.8% and 13.5%; the % dead cells at 10 nM is 13% and 13.3%; the % dead cells at 30 nM was 14.7% and 14.3%. In assay [1], the % dead cells at 100 nM is 17.7% and 17.2%; the % dead cells at 300 nM is 19.5% and 20.1%; the % dead cells at 1000 nM is 19.7% and 20.4%; the % dead cells at 3000 nM is 16.9% and 16.8%. Also, the “RLU at 100 nM” value with CD38 [5] was 21800 RLU. Also, the “EC50 (nM), ADCC reporter cells” value with CD38 [2] was found to be 63 nM. Further, in assay [3], the MFI at 0.3 nM was 1990 and 1770; the MFI at 1 nM was 2310 and 1770; the MFI at 3 nM was 1690 and 1630; the MFI at 10 nM is 2890 and 1820. In assay [3], the MFI at 30 nM is 4350 and 2820; the MFI at 100 nM is 13800 and 19500; the MFI at 300 nM is 26600 and 20600; the MFI at 1000 nM was 28500 and 32400. Besides, the MFI at 3000 nM in assay [3] was 23000 and 26100. This molecule also gave an IC50 with CD38 [4] of 88 nM.
